From PMC5872582

Target: L1 ORF1p-T7 (T7-tagged ORF1 protein expressed from the L1 construct pAD2TE1) (human) (UniProt Q9UN81)
Assay: co-IP; 293T cells cotransfected with pAD2TE1 and the partner; lysis 48 h posttransfection in 160 mM NaCl, 50 mM Tris-HCl pH 7.5, 1 mM EDTA, […] NP-40 with RNaseOUT; ORF1p-T7 precipitated with anti-T7 monoclonal antibody on magnetic beads; immunoblot; signals normalized on T7 signal in IP and myc signal in WCL

Sequence of UniProt Q9UN81 (Q9UN81 whole entry): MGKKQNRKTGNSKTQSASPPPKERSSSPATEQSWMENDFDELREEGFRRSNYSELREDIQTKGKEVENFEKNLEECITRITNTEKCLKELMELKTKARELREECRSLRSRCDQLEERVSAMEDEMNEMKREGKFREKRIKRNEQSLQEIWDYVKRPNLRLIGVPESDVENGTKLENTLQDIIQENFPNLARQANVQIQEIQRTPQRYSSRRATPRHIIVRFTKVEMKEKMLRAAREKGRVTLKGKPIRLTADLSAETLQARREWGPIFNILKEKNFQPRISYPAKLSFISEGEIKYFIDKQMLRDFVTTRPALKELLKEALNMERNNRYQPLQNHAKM

| normalized densitometric intensity of the co-precipitated band | Substance |
| --- | --- |
| 24% | human SAMHD1 T592D, myc-tagged (from UniProt Q9Y3Z3 1-626) (natural protein) |
| 100% | human SAMHD1 T592A, myc-tagged (from UniProt Q9Y3Z3 1-626) (natural protein) |
